Measurements reported in patent US11723946B2, “Methods for regulating transcription of multiple genes and expression of multiple targets” (CHINA MEDICAL UNIVERSITY, priority 2014, dated 2023).
Where two headings read alike, the source gives them in different places.

Columns and labels:
[1] = tested on: Muscle (IGF and adipocytokine signaling pathway genes); settings: 2.5 mmol/kg daily, 7 days
Description: (2) DNA microarray analysis: The procedure of DNA microarray analysis was conducted according to the reference (Cheng, 2007). Briefly, 5 μg of total RNA was amplified by in vitro transcription using MessageAmp™ aRNA kit (Ambion). In the following, the fluorescence dye, Cy5, was chemically labeled on the amplified RNA (aRNA). After the labeling, the fluorescence labeled aRNA was hybridized with Whole Genome OneArray™ in hybridization buffer (Phalanx Biotech Group, Taiwan) on cover slide. Following the hybridization reaction at 50° C. over-night, the non-specific binding on the chip was washed by three washing steps. The washed chip was dried by centrifugation and was scanned by Axon 4000 scanner (Molecular Devices, Sunnyvale, Calif., USA) to measure the fluorescence signals. The fluorescence intensity of Cy5 on each spots was further analyzed by genepix 4.1 (Molecular Devices). First, the signals of each spot were adjusted by deducting the intensity of background. In the next step, the spots including the probes of internal controls or the spots with the signal-to-noise ratios less than 0 would be removed. The qualified spots were normalized by limma package which is belonged to R console (Smyth, 2005).

[2] = Muscle histology (H&E) in genetic deficient mice; type: in vivo; settings: 2.5 nmol/kg peritoneal twice a week, 4 weeks; vs control mice
From the text: Collecting the muscles from the mice of the both groups stated in example 5. The collected muscles were for histological examination. In the histology examination, the cell number and cellular size of the muscular tissue were examined by H&E staining and microscopy observation.

NF-κB = assay: Whole animal bioluminescent imaging, LPS-induced NF-κB/luc transgenic mice; type: in vivo
From the text: Mice: The NF-κB/luc transgenic mice bearing the luciferase transgene driven by two copies of the NF-kappaB regulatory elements were mated with wild-type FVB mice to generate the hybrid NF-κB/luc transgenic offspring for the experiments. Whole animal bioluminescent imaging: 15 mice with age of 6˜8 weeks were randomly divided into three groups. The group 1 was the blank group; the group 2 was control group; and the group 3 was experimental group. The mice of the group 2 and the group 3 were administration with 100 ul of […] lipopolysaccharide (LSP) solution to induce the inflammation in the mice by intraperitoneal injection (IP injection). As the blank control, the mice of group 1 were administered with 100 μl of PBS by IP injection. After the LPS-injection for 5 minutes, the mice of the group 3 were further injected with 20 μl solution that contains 0.5 mg/Kg of the present polypeptide by IP injection. In contrast, the mice of the group 2 and the […] were injected with 20 μul of water. […] For in vivo imaging mice were anesthetized with isoflurane and injected intraperitoneally with 150 mg/kg luciferin. After 10 minutes, the mice were placed face up and imaged for 1 min with the camera set at the highest sensitivity by IVIS Imaging System-200 (Series Xenogen Hopkinton, Mass.). The photons emitted from the tissues were quantified by Living Images software (Xenogen, Hopkinton, Mass.) and were shown in FIG. 4A. In the FIG. 4A, the Y-axis shown the signal strength (photons/sec) that stands for total photons diffused from the mice.

[3] = tested on: Liver (Fatty liver genes); settings: Down-regulated, 2.5 mmol/kg daily, 7 days
Description: (§1) The wild-type FVB mice were divided into the control group and the experimental group, wherein the mice in the experimental group were daily administered with 20 μl peptide-containing solution that contains 2.5 mmol/kg of the present peptide for 7 days. Moreover, the mice in the control group were daily administrated with 20 μl PBS solution for 7 days.
(§2) After the daily administration, the tissues of column, muscle, fat pad, liver and kidney were collected for analyzing the expression of multiple targets by system biology analysis. Herein, the altered expressions of the targets in the genome were determined by using DNA microarray which is a well-established tool for systematic biology analysis. Furthermore, the results of the DNA microarray were further categorized and analyzed by bioinformatics analysis to determine the effect and affected signaling pathways of the present polypeptide. Therefore, it can determine the downstream targets of the present polypeptide comprising the amino acid sequence of SEQ ID No. 1 by the mechanism investigation through microarray analysis and gene expression profile. The detail steps including:
(§3) (1) RNA preparation: The total RNA was extracted from the tissue by using RNeasy Mini Kit (Qiagen, Valencia, Calif., USA). The amount of the extracted total RNA was measured by Beckman DU800 spectrophotometer (Beckman Coulter, Fullerton, Calif., USA). In the next step, the quality of the RNA sample with A260/A280 ratio more than 1.8 was further evaluated by Agilent 2100 bioanalyzer (Agilent Technologies, Santa Clara, Calif., USA). When with the RNA integrity number of the sample is more than 8.0, it would be analyzed by the following microarray analysis.
(§4) (2) DNA microarray analysis: The procedure of DNA microarray analysis was conducted according to the reference (Cheng, 2007). Briefly, 5 μg of total RNA was amplified by in vitro transcription using MessageAmp™ aRNA kit (Ambion). In the following, the fluorescence dye, Cy5, was chemically labeled on the amplified RNA (aRNA). After the labeling, the fluorescence labeled aRNA was hybridized with Whole Genome OneArray™ in hybridization buffer (Phalanx Biotech Group, Taiwan) on cover slide. Following the hybridization reaction at 50° C. over-night, the non-specific binding on the chip was washed by three washing steps. The washed chip was dried by centrifugation and was scanned by Axon 4000 scanner (Molecular Devices, Sunnyvale, Calif., USA) to measure the fluorescence signals. The fluorescence intensity of Cy5 on each spots was further analyzed by genepix 4.1 (Molecular Devices). First, the signals of each spot were adjusted by deducting the intensity of background. In the next step, the spots including the probes of internal controls or the spots with the signal-to-noise ratios less than […] would be removed. The qualified spots were normalized by limma package which is belonged to R console (Smyth, 2005).
(§5) (3). Analysis of the functional mechanism and affected signaling pathways by using bioinformatics software: The altered downstream targets, functional mechanisms, affected signaling pathways and the disease relevance were investigated by using the bioinformatics software such as Medical Subject Headings (MeSH, http://www.nlm.nih.gov/mesh/meshhome.html) and BiblioSphere Pathway Edition.

[4] = tested on: Column (IL-1β and TNF signaling pathway genes); settings: Down-regulated, 2.5 mmol/kg daily, 7 days
Description: as §1, §2, §3, §4, §5

[5] = tested on: Kidney (Diabetes; Nephrosis genes); settings: Down-regulated, 2.5 mmol/kg daily, 7 days
Description: as §1, §2, §3, §4, §5

[6] = Adipocytokine signaling pathway, Down-regulated
[7] = IGF signaling pathway, Up-regulated

B1: present polypeptide: polypeptide comprising the amino acid sequence of SEQ ID No. 1; made by peptide synthesis, recombinant expression or extraction from Momordica charantia (peptide, listed as Artificial synthsis)
chain: SRCQGKSSWPQLVGSTGAAAKAWIERENPRVRAVIIKVGSGATKDFRCDRVRVWVTERGIVARPPTIG
- Fold, Acsl1 [1, 6]: 4.56 folds
- Fold, Akt1 [1, 6]: 1.57 folds
- Fold, Cd36 [1, 6]: 2.42 folds
- Fold, Nfkbia [1, 6]: 2.55 folds
- Fold, Prkag1 [1, 6]: 1.93 folds
- Fold, Ptpn11 [1, 6]: 2.31 folds
- Fold, Stat3 [1, 6]: 1.55 folds
- Fold, Adprt1 [1, 7]: Up-regulated 1.9 folds
- Fold, Cabin1 [1, 7]: Up-regulated 2.4 folds
- Fold, Igfbp5 [1, 7]: Up-regulated 1.9 folds
- Fold, Irs1 [1, 7]: Up-regulated 3.7 folds
- Fold, Map2k2 [1, 7]: Up-regulated 1.6 folds
- Fold, Mdk [1, 7]: Up-regulated 3.4 folds
- Fold, Mmp13 [1, 7]: Up-regulated 3.0 folds
- Fold, Myh1 [1, 7]: Up-regulated 3.2 folds
- Fold, Nfatc3 [1, 7]: Up-regulated 1.5 folds
- Fold, Pik3r1 [1, 7]: Up-regulated 1.8 folds
- Fold, Rps6kb1 [1, 7]: Up-regulated 4.7 folds
- Fold, Spp1 [1, 7]: Up-regulated 3.6 folds
- Fold, Twist 1 [1, 7]: Up-regulated 2.1 folds
- Fold, Vegfa [1, 7]: Up-regulated 1.5 folds
- muscular dystrophy (H&E histology of muscle) [2]: improved the muscular dystrophy
- suppression of luminescent intensity (NF-κB; group 3 (LPS + 0.5 mg/Kg polypeptide IP)): about 38%
- average of luciferin value (NF-κB; group 3: LPS + 0.5 mg/Kg polypeptide IP, 4 hours after injection): 19.82×10^7 photons/sec
- Fold, Aldh2 [3]: 2.5 folds
- Fold, Ctla4 [3]: 1.56 folds
- Fold, Cyp17a1 [3]: 1.52 folds
- Fold, Mmp2 [3]: 2.11 folds
- Fold, Mttp [3]: 3.53 folds
- Fold, Sod2 [3]: 1.71 folds
- Fold, Ccl2 ([4]; IL-1β signaling pathway): 1.71 folds
- Fold, Cdh2 ([4]; IL-1β signaling pathway): 1.73 folds
- Fold, Icam1 ([4]; IL-1β signaling pathway): 2.27 folds
- Fold, Pecam1 ([4]; IL-1β signaling pathway): 1.99 folds
- Fold, Tnfrsf11b ([4]; IL-1β signaling pathway): 2.74 folds
- Fold, ADIPOQ ([4]; TNF signaling pathway): 1.78 folds
- Fold, Bcl3 ([4]; TNF signaling pathway): 1.72 folds
- Fold, CD40 ([4]; TNF signaling pathway): 1.79 folds
- Fold, Casp3 ([4]; TNF signaling pathway): 1.71 folds
- Fold, Ikbke ([4]; TNF signaling pathway): 1.95 folds
- Fold, Irs1 ([4]; TNF signaling pathway): 1.73 folds
- Fold, Ltf ([4]; TNF signaling pathway): 1.99 folds
- Fold, Mapk3 ([4]; TNF signaling pathway): 2.32 folds
- Fold, Mapk9 ([4]; TNF signaling pathway): 1.53 folds
- Fold, Rxra ([4]; TNF signaling pathway): 1.89 folds
- Fold, Socs1 ([4]; TNF signaling pathway): 2.46 folds
- Fold, Tnfrsf11b ([4]; TNF signaling pathway): 2.74 folds
- Fold, Apoc3 [5]: 2.5 folds
- Fold, Ctla4 [5]: 1.65 folds
- Fold, Fabp2 [5]: 1.62 folds
- Fold, Fgb [5]: 1.91 folds
- Fold, Hp [5]: 2.35 folds
